{"source": "a protein production outcome set (Wang et al. 2014)"}
{"assay": "label from the status in PepcDB records"}
{"sequence": "MEEELPLFSGDSGKPVQATLSSLKMLDVGKWPIFSLCSEEELQLIRQACVFGSAGNEVLYTTVNDEIFVLGTNCCGCLGLGDVQSTIEPRRLDSLNGKKIACLSYGSGPHIVLATTEGEVFTWGHNAYSQLGNGTTNHGLVPCHISTNLSNKQVIEVACGSYHSLVLTSDGEVFAWGYNNSGQVGSGSTVNQPIPRRVTGCLQNKVVVTIACGQMCCMAVVDTGEVYVWGYNGNGQLGLGNSGNQPTPCRVAALQGIRVQRVACGYAHTLVLTDEGQVYAWGANSYGQLGTGNKSNQSYPTPVTVEKDRIIEIAACHSTHTSAAKTQGGHVYMWGQCRGQSVILPHLTHFSCTDDVFACFATPAVTWRLLSVEPDDHLTVAESLKREFDNPDTADLKFLVDGKYIYAHKVLLKIRCEHFRSSLEDNEDDIVEMSEFSYPVYRAFLEYLYTDSISLSPEEAVGLLDLATFYRENRLKKLCQQTIKQGICEENAIALLSAAVKYDAQDLEEFCFRFCINHLTVVTQTSGFAEMDHDLLKNFISKASRVGAFKN", "protein production": "failed"}
{"sequence": "MEEHGHHEMEGTPLGCHSHIKLLKINREHLVTNIRNTQCLVDNLLENGYFSAEDAEIVCACPTKPDKVRKILDLVQSKGEEVSEFFLYVLQQLEDAYVDLRLWLSEIGFSPSQLIRTKTIVNTDPVSRYTQQLRHQLGRDSKFMLCYAQKEDLLLEETYMDTLMELVGFNNENLGSLGGLDCLLDHSTGVLNEHGETVFVFGDAGVGKSMLLQRLQSLWASGRLTSTAKFFFHFRCRMFSCFKESDMLSLQDLLFKHFCYPEQDPEEVFSFLLRFPHTALFTFDGLDELHSDFDLSRVPDSCCPWEPAHPLVLLANLLSGRLLKGAGKLLTARTGVEVPRQLLRKKVLLRGFSPSHLRAYARRMFPERTAQEHLLQQLDANPNLCSLCGVPLFCWIIFRCFQHFQTVFEGSSSQLPDCAVTLTDVFLLVTEVHLNRPQPSSLVQRNTRSPAETLRAGWRTLHALGEVAHRGTDKSLFVFGQEEVQASKLQEGDLQLGFLRALPDVGPEQGQSYEFFHLTLQAFFTAFFLVADDKVSTRELLRFFREWTSPGEATSSSCHSSFFSFQCLGGRSRLGPDPFRNKDHFQFTNLFLCGLLAKARQKLLRQLVPKAILRRKRKALWAHLFASLRSYLKSLPRVQSGGFNQVHAMPTFLWMLRCIYETQSQKVGRLAARGISADYLKLAFCNACSADCSALSFVLHHFHRQLALDLDNNNLNDYGVQELQPCFSRLTVIRLSVNQITDTGVKVLCEELTKYKIVTFLGLYNNQITDIGARYVAQILDECRGLKHLKLGKNRITSEGGKCVALAVKNSTSIVDVGMWGNQIGDEGAKAFAEALKDHPSLTTLSLAFNGISPEGGKSLAQALKQNTTLTVIWLTKNELNDESAECFAEMLRVNQTLRHLWLIQNRITAKGTAQLARALQKNTAITEICLNGNLIKPEEAKVFENEKRIICF", "protein production": "failed"}
{"sequence": "MEEKAKMRRLSTWKLKLRMFLATVLLFGLIYAILMVVGSILGLGGPLFYALLGFGVIFLQYLISPKIVELTMNVHYVSEAEAPRLHAMVDELARRAGIPKPMVGIAEIALPNAFAFGRTKADGRVCVTRGILNLLDEEELRAVLGHEISHIKHSDMIVMTLVSAVPLICYYIFWSTVFSRDDEANLVGIAALIAYFIGQLIVLFISRTREYYADQGSVEIGGQPHKLASALYKLVLRLSPVQQGRPETGRGCQGLLPE", "protein production": "failed"}
{"sequence": "MEEKNIHMQPNINYSYRNPNMYNMNYHNPIVPPPQQQMQLFVNDWKSILSPMQTCKIKQQFDDREFVADYFMGFKLDFNNKYLILDASTELMKFTACEKSEFCYRNCLPKICIPMNMKILSYGKEISKPDILMEKDCTCTFLCFNRPTIKMYDFSNNNNKELIGTIKTPYRCCSYNFNLFDPSNNKIMYMDDTCCQMSILCPCPWGPFKYSNFFLRDANSKEKIAHLRKEVPFLKFVKRDIDNYTLDFEQVQNPEWKMMLLAFALFLDYMYYDRK", "protein production": "failed"}
{"sequence": "MEELLREYLPILVFLAVAAGLGLVLILAAVVLAVRNPDPEKVSAYECGFNAFDDARMKFDVRFYLVSILFIIFDLEIAFLFPWAVGFKDMSDVGFWSMMVFLGVLTIGFAYEWKKGALEWQ", "protein production": "failed"}
{"sequence": "MEEMFETSLKVIEQSGWLAPVLFIMLHVFRQVFFIPVIIICLVGGYLFGSFYGSLYSIIGLTATSALFYGIVHGFPRFLAKVSQLKKRFLGEKESLSLPQMMLLRIVPFIHFHLVSLYVMETRPTFREYMKISFYLSMPPAIIYTLFGDMIHELPLVGTVVFALFIGLLCFMARRKEQRYAWQEFFKA", "protein production": "failed"}
{"sequence": "MEEMNVFLTMIYRELKRFIRSPSRIIGSILNPLLWLIFFGKGWSGVFNFPMATRIFGGVDYMTYLVPGVVVMTVFDMSFLQGLTIIWDKQFGFMKEILVAPASRVESILGRITGGAIVAMIQGFIMVALSFIVANLKVSGVIPTLILAFFVGVAIAGLGVAVALKMSSMEGFQIIVMMLMLPMMFLSGAFYPVRTMPNWMQWLAKINPLTYAVDGARYYLAGVTPTFGIMQDWIVLILLALVFAGFAGLEFRKAYLS", "protein production": "failed"}
{"sequence": "MEENTAVAAAERRSGCGLLSVMFGRRGLWSKKSTAVDNGSQKSTSTAATATSNIQFTKSPGTELKKPRDDQKVSAEPIQNNKIQNNQNHNQRSVVPSKPSSNQYPNNHQLGTYENHQRSSYNNNSNSVDPYRGGGGQRKVPREAIGLSGELESMITDHQKAKGTNGLVRASSSNIMLYGNLGNLNQTGPVTAGVNYGNNNGYGVKRTTMGAATATTTKSQDQSGSLCRAISTRMDPETLKIMGNEDYKNGNFAEALALYDAAIAIDPNKAAYRSNKSAALTALGRILDAVFECREAIRIEPHYHRAHHRLGNLYLRLGEVEKSIYHFKHSGPEADREDIAKAKTVQTHLNKCTEAKRLRDWNGLITETTNTISSGADAAPQVYALQAEALLKTHRHQEADDALSRCPVFDIDASTRYYGPVGYAGFLVVRAQVHLASGRFDEAVEAIQRAGKLDGNNREVIMISRRAQAVTEARFKGNELFKSGRFQEACAAYGEGLDHDPRNSVLLCNRAACRSKLGQFDKSIEDCTAALSVRPGYGKARLRRADCNAKIEKWELAVGDYEILKKESPEDEQVIRGLSEAQQQLMKRSGQDS", "protein production": "failed"}
{"sequence": "MEERELTLSDILLMFKRRSKLFWLVLVLTVFATGIYLFLATPQYEAYARVKVSTQKGMRLGLSIEGLLGGLSSLLGGGGSQEDEIQIMLSRRNIIAVIDELDLVHKLLDEKDIEKAKKNGLTEDDLKLSLYSYMVEKLITVEPVKNSSILEVKVTWHEPKLAAEIANKIVENYTKISENIAKSQLGAKMDFLEEQIPKVEQELKEAESKLKVFKEQNRIYSVEAQTQVLIDRYASLLQKMEEARIAMEATQKQSEFFSKELKDLDIEIEQIKDSITFDPIISQLKSNMINIQIELAGLMERYTETNPAVVQKKAELQETQKQLEIELKRLLTSQVKKTGNPVYEEALSSLIKAESEKILYQSQYEAFKKLYEDMEKELSKLPELEQKLIELERDYKVKETIYTTLLQAKYESLISEAAITANANVIDWAVPPLEPSKPNKKLTLAIGGVLGIFLGILAVFFAEFSDRRIKSESEAEYLLGLEKIVARVPLTQNEEVMEKALGIPAVKSGKVTFITALEDGAGVSTLAKHMAKLLSKKEKVLLLTEEKVEGTFDRKDVFDLLKNPDVLEELKERYDKIIVDAPSLKRTPDFLPIAEKSDTVYIVIRLEHTLSEDLKTLHTLKKIDGFILNGLTKKNSTYVE", "protein production": "failed"}
{"sequence": "MEEVIWEQYTVTLQKDSKRGFGIAVSGGRDNPHFENGETSIVISDVLPGGPADGLLQENDRVVMVNGTPMEDVLHSFAVQQLRKSGKIAAIVVKRPRKVQVAPL", "protein production": "not failed"}
{"sequence": "MEFAPRSVVIEEFIDTLEPMMEAYGLDQVGIFEEHGEGNRYYVGYTINKDDEMITIHMPFVKNERGELALEKQEWTVRKDGREKKGFHSLQEAMEEVIHS", "protein production": "not failed"}
{"sequence": "MEFDKGQTLGNFIDRIRLNGYNTECVFNQSICQDIKNHYKQQCCAMCGVRGNSENTQIEVDHKDGRKDDSRVSDLSTQAFDDFQALCKACNDKKRQICKKCKETGYRFDARKIPGNHYSFYEGEAEYDGCVGCYQYDPIQYRKTCNDRIYNEGYQKGYSDGYQIGYHQKTT", "protein production": "failed"}
{"sequence": "MEFEVKKTFGKARLGVMKLHHGAVETPVFMPVGTNASVKLLTPRDLEEAGAEIILSNTFHLMLKPGVEIIKLHRGLHNFMGWKRPILTDSGGFQVFSLPKIRIDDEGVVFRSPIDGSKVFLNPEISMEVQIALGSDICMVFDHCPVPDADYEEVKEATERTYRWALRSKKAFKTENQALFGIVQGGIYPDLRRESALQLTSIGFDGYAIGGLSIGEERSLTLEMTEVTVEFLPEDKPRYFMGGGSPELILELVDRGVDMFDSVFPTRIARHGTALTWNGKLNLKASYNKRSLEPVDERCGCYTCKNFTRSYIHHLFDRGEVLGQILLTIHNINFMISLMKEVRRSIESGTFKELKSKVVEVYSSGGVNV", "protein production": "not failed"}
{"sequence": "MEFFAVSLDSHVFSHIKEIFLYNHNQKFYVVMMKHDDVLMILAAAALMFSFSWVHGMLLVLPLLAIPQLSSRTLKWGVLVLAVFVALLILQPMTRAVGLNISDELFRLVLLLLFTFMVALLIERIEKVRSLRELNLELKKQAEKLEDANKELEAFAYSVSHDLRVPLRAIDGFSRILVEDYEDKLDDEGVRILGIIRDNTRKMGQLIDDILLLSRAGRQEMNLAMLDMRELAESTYRELASQEEGRSIEFSVADLPPAMADRALMGQVMGNLLSNAIKFTRDRDPAVIEVGYMDGGDEHTYYVKDNGAGFDMKYASKLFGLFQRLHSQEEFEGTGVGLSIVQRIIKRHGGRVWGEGKVDGGATIYFTLPKVVK", "protein production": "failed"}
{"sequence": "MEFLAYFNSVISNNIFLAIILSFFAGVVASFSPCTLSSIPLLIGYVQGSEVKDNKKAFKYSLIFSIGLGITFTVIGLLTALIGKAFLGAGKFWYIILAFIMIGSGLQVLDVINLFGDKKEACKITKRREGILDAFFLGILSGILASPCATPIMAAIIAFIAASGNLVIGMIMLLMYSLGHSVLIILAGTSFGLVEKIAYSENGKKIGRVLKNILGTIIILVGLYLFYLGV", "protein production": "failed"}
{"sequence": "MEFLIILLLLVLNGIFAMYEIALVSSSKARLETLAGKGNKSARGVLKQLEEPEKFLSTIQIGITLIGIVSGAYGGVAIADDLVPLFSLIPGAEAYARNLAMITTVVIITYLSLIIGELVPKSIALSNPERYATLFSPIMILLTKVSYPFVWFLSISTRLLNRIIGVKNEERPMTQEEIKMILHQSSEQGVIDKEETEMLRDVFRFSDKRANELMTHRRDLVIFHPDDTKDKVMKTIEEEHYSKYLLVDERKDEIIGVVSVKDIILMVGNKKEFNLREIARPALFIPESLYANKILELFKKNKNKFGVVVNEYGSTEGIITLHDLTESIFGDILEEDDTEEEDIVRRQDGSMLVEASMNIKDFMEEMGILSYEDLEDEDFTTLGGLAMFLLGGIPKAGDIFTYKNLQFEVVDMDRGRVDKLLVIKRDEEE", "protein production": "failed"}
{"sequence": "MEFMHDKSAEDEGITLVSEPMDTTVATHESRRNAAAFSSVVAPTTDDEIVHERFDPAFEVQADFYGFDENAPPLPLPEEYYSELPLPEEDRQYIPPPPALIPVEPETTFRRPRTRQQRRTESQLVQPVSVATYEDSKASLRVLMQQLPPPGDNVVARIPKRTHRVVRTLPPTFGTTKREENFYGFSKTAISWRKTRASWRHFCLLING", "protein production": "failed"}
{"sequence": "MEFRLLHISDLHMIPGQETKKAWVSALDSLSPDLVINTGDNLSDEKAVPDVLRALGPLMNRPGAFVFGTNDYWAPRPVNPFGYLFGKKREVSHIDLPWRAMRAAFIEHGWQDANQKRLEFQVGSVRLAISGVDDPHHDLDDYTEIAGAPNVDADLSIALLHAPEPRVLAQFEADGYQLSLSGHTHGGQLEHHHHHH", "protein production": "failed"}
